Results on one molecule are retold here after publication PMC4007151 (Nature communications, 2013).

No end group written: not given here.

In the assay the target is T1, PHF1 Tudor-PHD1 (human, UniProt O43189 14-140).
T1 sequence: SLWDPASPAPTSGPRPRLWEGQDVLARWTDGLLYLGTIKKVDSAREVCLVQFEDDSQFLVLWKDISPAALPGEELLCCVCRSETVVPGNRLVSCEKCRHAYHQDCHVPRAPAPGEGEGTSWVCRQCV
Put plainly: NMR titration.

For the molecule ATGGVK(Me3)KPHR [H3K36me3 peptide], the binding result was “binds”.
